Where no end group is shown, it is not given here.
B1: fluorescein-modified linear LIR^ATG3 peptide (peptide)
chain: LEAIIEEDDGDGGWVDTYH
modifications: also: fluorescein, position not given here
B2: fluorescein-modified truncated (103–111) LIR^ATG3 peptide (peptide)
peptide: GDGGWVDTY
modifications: also: fluorescein, position not given here
B3: fluorescein-modified cyclized LIR^ATG3 peptide (peptide)
chain: LEAIIEEDDGDGGWVDTYHCGGGK
modifications: also: fluorescein, position not given here, cyclized, places not given here

Molecular target: LC3A (UniProt Q9H492 1-121)
Test: FP

First: B1
Second: B2
The Kd of the first is lower: 2.6 µM for the first, over 15 µM for the second. The first binds more tightly here.

In the case of B3, the Kd is reported as 0.41 µM.

Molecular target: GABARAP (UniProt O95166 2-116)
Sequence (O95166 2-116): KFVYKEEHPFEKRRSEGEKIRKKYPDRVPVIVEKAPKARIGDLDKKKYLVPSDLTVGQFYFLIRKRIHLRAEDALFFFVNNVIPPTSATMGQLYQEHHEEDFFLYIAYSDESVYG
Test: FP

First: B1
Second: B2
The Kd of the first is lower: 1.2 µM for the first, over 10 µM for the second. The first binds more tightly here.

In the case of B3, the Kd is reported as 0.15 µM.
